Assays:
Test in all cases: cell-based or functional assay
[1] = target: HIV-1 envelope glycoprotein (Env) of isolate MGRM-C-005 (HIV-1)
[2] = target: HIV-1 Env of isolate MGRM-D-022 (clade D pseudovirus) (HIV-1)
[3] = target: HIV-1 MGRM-G-006 Env (pseudovirus) (HIV-1)
[4] = target: envelope of aMLV pseudovirus (negative control)
[5] = target: HIV-1 Env of isolate MGRM-Chronic-B-008, clade B (HIV-1)
[6] = target: HIV-1 Env of isolate MGRM-Chronic-B-002, clade B (HIV-1)
[7] = target: HIV-1 Env of pseudovirus MGRM-F1-006 (clade F) (HIV-1)
[8] = target: HIV-1 Env of isolate MGRM-D-005 (clade D pseudovirus) (HIV-1)
[9] = target: HIV-1 Env of isolate MGRM-D-012 (clade D pseudovirus) (HIV-1)
[10] = target: HIV-1 envelope glycoprotein (Env) of isolate MGRM-C-008 (HIV-1)
[11] = target: HIV-1 Env of isolate 93TH305, clade B (HIV-1)
[12] = target: HIV-1 Env of pseudovirus MGRM-G-013 (HIV-1)
[13] = target: HIV-1 envelope glycoprotein (Env) of isolate 93IN905 (HIV-1)
[14] = target: HIV-1 Env of pseudovirus MGRM-F1-016 (clade F) (HIV-1)
[15] = target: HIV-1 93IN905 envelope (Env) on pseudovirus (HIV-1)
[16] = target: HIV-1 92UG024 envelope (Env) on pseudovirus (HIV-1)
[17] = target: HIV-1 92UG005 envelope (Env) on pseudovirus (HIV-1)
[18] = target: HIV-1 Env of pseudovirus MGRM-F1-004 (clade F) (HIV-1)
[19] = target: HIV-1 envelope glycoprotein (Env) of isolate MGRM-C-001 (HIV-1)

Sequence of 1443_C16 (PG16) (TCN-116) (antibody) (VH): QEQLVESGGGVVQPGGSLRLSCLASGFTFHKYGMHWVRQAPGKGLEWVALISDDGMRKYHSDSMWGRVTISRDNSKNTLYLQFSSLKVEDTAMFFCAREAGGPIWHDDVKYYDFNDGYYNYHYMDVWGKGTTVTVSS
Sequence of 1443_C16 (PG16) (TCN-116) (antibody) (VL): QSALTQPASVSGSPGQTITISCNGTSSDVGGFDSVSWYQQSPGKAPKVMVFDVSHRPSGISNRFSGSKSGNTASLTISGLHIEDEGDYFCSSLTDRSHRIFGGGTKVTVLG

Substance | IC50 (µg/ml), pseudovirus neutralization [1] [µg/mL] | IC50, pseudovirus neutralization [2] [µg/mL] | IC50 (µg/ml), pseudovirus neutralization [3] [µg/mL] | IC50 [4] [µg/mL] | IC50 (µg/ml), pseudovirus neutralization [5] [µg/mL] | IC50 (µg/ml), pseudovirus neutralization [6] [µg/mL] | IC50 [7] [µg/mL] | IC50, pseudovirus neutralization [8] [µg/mL] | IC50, pseudovirus neutralization [9] [µg/mL] | IC50 (µg/ml), pseudovirus neutralization [10] [µg/mL] | IC50 (µg/ml), pseudovirus neutralization [11] [µg/mL] | IC50 (µg/ml), pseudovirus neutralization [12] [µg/mL] | IC50 (µg/ml), pseudovirus neutralization [13] [µg/mL] | IC50 [14] [µg/mL] | neutralization IC50 [15] [µg/mL] | neutralization IC50 [16] [µg/mL] | neutralization IC50 [17] [µg/mL] | IC50 [18] [µg/mL] | IC50 (µg/ml), pseudovirus neutralization [19] [µg/mL]
2F5 (antibody) | > 50 | 8.45 | 1.33 | > 50 | > 50 | 1.25 | 1.1 | > 50 | 1.7 | > 50 | 7.61 | 0.59 | > 50 | 21.5 | > 50 | 1.27 | 11.8 | 4.31 | > 50
1495_C14 (PGC14) (antibody) | > 50 | > 50 | > 50 | > 50 | > 50 | > 50 | > 50 | > 50 | > 50 | > 50 | 6 | > 50 | 19 | > 50 | > 50 | > 50 | > 50 | > 50 | > 50
1443_C16 (PG16) (TCN-116) (antibody) | 2.55 | > 50 | 2.42 | > 50 | 0.73 | 3.06 | 0.27 | 19.7 | 0.35 | > 50 | 19.3 | > 50 | 0.25 | 1.12 | 0.102 | > 50 | > 50 | 0.43 | 16.8
4E10 (antibody) | 16.4 | 16.9 | 1.23 | > 50 | 16.7 | 2.19 | 1.01 | 35.2 | 1.13 | 2.97 | 12.3 | 1.15 | 1.26 | 7.61 | 1.55 | 1.32 | 8.86 | 2.74 | 5.66
2G12 (antibody) | > 50 | > 50 | > 50 | > 50 | 0.55 | > 50 | > 50 | 25.7 | > 50 | > 50 | 0.55 | > 50 | > 50 | > 50 | > 50 | 0.59 | > 50 | > 50 | 2.93
b12 (antibody) | 2.66 | 17.6 | > 50 | > 50 | 2.82 | 0.86 | > 50 | > 50 | 0.13 | 1.51 | 4.17 | > 50 | 21.4 | > 50 | 34.1 | 49.1 | > 50 | > 50 | > 50
